Data published in patent publication US20250206836A1 (ONA THERAPEUTICS S L, published 2025).

Target: T1, human CD36 (on HEK 293 or SCC25 cells) (human, UniProt P16671 2-472)
T1 construct: Overexpressed transiently or stably on HEK 293 cells, or stably on SCC25 cells; also called huCD36
Assay: FACS, HEK 293 cells transiently overexpressing human CD36
Protocol: After incubation with the cells, an anti-human fluorescently labelled antibody was added to the cell media, allowed to incubate further, and the unbound antibody was washed off of the cells. Subsequently, the cells were subjected to FACS analysis to determine antibody binding to the cells. The results were fitted to a sigmoidal titration curve. Using a nonlinear regression model, the EC₅₀ values for each antibody were calculated from the GeoMFI and MFI values using the log(agonist) versus response (four parameters) fitting on the data transformed according to X=Log[X] in GraphPad PRISM.
After transiently transfecting the HEK 293 cells with a CD36 expression construct, cells were treated with three-fold serial dilution of each candidate antibody (10 dilutions starting at 500 nM). […] Antibody binding to cells was measured by FACS as above.

T1 sequence (P16671 2-472 limits assumed): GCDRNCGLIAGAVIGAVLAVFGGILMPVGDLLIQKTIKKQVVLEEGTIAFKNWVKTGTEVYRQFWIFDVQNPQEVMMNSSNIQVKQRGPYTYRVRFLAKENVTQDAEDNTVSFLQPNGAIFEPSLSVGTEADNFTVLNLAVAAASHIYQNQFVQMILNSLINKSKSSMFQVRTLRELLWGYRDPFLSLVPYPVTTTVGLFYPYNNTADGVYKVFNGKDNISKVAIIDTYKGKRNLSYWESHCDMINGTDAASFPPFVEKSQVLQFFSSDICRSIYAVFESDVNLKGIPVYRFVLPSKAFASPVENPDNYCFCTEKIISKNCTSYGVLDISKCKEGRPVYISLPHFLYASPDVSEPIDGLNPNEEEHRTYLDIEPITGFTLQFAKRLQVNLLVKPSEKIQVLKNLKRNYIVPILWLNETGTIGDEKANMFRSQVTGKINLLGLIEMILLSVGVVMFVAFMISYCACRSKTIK

Binder	EC50
73G06 (antibody, human IgG1, kappa, Humanized 11G04, human IgG1 STR) heavy: EVQLVQSGAEVKKPGSSVKVSCKASGYRFSDYEMQWVRQAPGQGLEWMGGIDPETGGIAYAQKFQGRVTLTADKSTSTAYMELSSLRSEDTAVYYCTRKLDFDYWGQGTLVTVSSASTKGPSVFPLAPSSKSTSGGTAALGCLVKDYFPEPVTVSWNSGALTSGVHTFPAVLQSSGLYSLSSVVTVPSSSLGTQTYICNVNHKPSNTKVDKKVEPKSCDKTHTCPPCPAPESTRGPSVFLFPPKPKDTLYITREPEVTCVVVDVSHEDPEVKFNWYVDGVEVHNAKTKPREEQYNSTYRVVSVLTVLHQDWLNGKEYKCKVSNKALPAPIEKTISKAKGQPREPQVYTLPPSRDELTKNQVSLTCLVKGFYPSDIAVEWESNGQPENNYKTTPPVLDSDGSFFLYSKLTVDKSRWQQGNVFSCSVMHEALHNHYTQKSLSLSPGK light: ETTVTQSPAFMSATTGDKVTISCITSTDIDDDMNWYQQKPGEPPKLLISEGNTLRPGVPSRFSSSGYGTDFTFTINNIESEDAAYYYCLQSDNLPLTFGQGTKLEIKRTVAAPSVFIFPPSDEQLKSGTASVVCLLNNFYPREAKVQWKVDNALQSGNSQESVTEQDSKDSTYSLSSTLTLSKADYEKHKVYACEVTHQGLSSPVTKSFNRGEC	0.87 nM
79G06 (antibody, human IgG1, kappa, Humanized 11G04, human IgG1 STR) heavy: EVQLVQSGAEVKKPGSSVKVSCKASGYRFSDYEMQWVRQAPGQGLEWMGGIDPETGGIAYAQKFQGRVTLTADKSTSTAYMELSSLRSEDTAVYYCTRKLDFDYWGQGTLVTVSSASTKGPSVFPLAPSSKSTSGGTAALGCLVKDYFPEPVTVSWNSGALTSGVHTFPAVLQSSGLYSLSSVVTVPSSSLGTQTYICNVNHKPSNTKVDKKVEPKSCDKTHTCPPCPAPESTRGPSVFLFPPKPKDTLYITREPEVTCVVVDVSHEDPEVKFNWYVDGVEVHNAKTKPREEQYNSTYRVVSVLTVLHQDWLNGKEYKCKVSNKALPAPIEKTISKAKGQPREPQVYTLPPSRDELTKNQVSLTCLVKGFYPSDIAVEWESNGQPENNYKTTPPVLDSDGSFFLYSKLTVDKSRWQQGNVFSCSVMHEALHNHYTQKSLSLSPGK light: ETTVTQSPAFMSATPGDKVTISCITSTDIDDDMNWYQQKPGEPPKLLISEGSTLRPGVPSRFSSSGYGTDFTFTINNIESEDAAYYYCLQSDNLPLTFGQGTKLEIKRTVAAPSVFIFPPSDEQLKSGTASVVCLLNNFYPREAKVQWKVDNALQSGNSQESVTEQDSKDSTYSLSSTLTLSKADYEKHKVYACEVTHQGLSSPVTKSFNRGEC	0.65 nM
80G06 (antibody, human IgG1, kappa, Humanized 11G04, human IgG1 STR) heavy: QVQLVQSGAEVKKPGSSVKVSCKASGYRFSDYEMQWVRQAPGQGLEWMGGIDPETGGIAYAQKFQGRVTLTADKSTSTAYMELSSLRSEDTAVYYCTRKLDFDYWGQGTLVTVSSASTKGPSVFPLAPSSKSTSGGTAALGCLVKDYFPEPVTVSWNSGALTSGVHTFPAVLQSSGLYSLSSVVTVPSSSLGTQTYICNVNHKPSNTKVDKKVEPKSCDKTHTCPPCPAPESTRGPSVFLFPPKPKDTLYITREPEVTCVVVDVSHEDPEVKFNWYVDGVEVHNAKTKPREEQYNSTYRVVSVLTVLHQDWLNGKEYKCKVSNKALPAPIEKTISKAKGQPREPQVYTLPPSRDELTKNQVSLTCLVKGFYPSDIAVEWESNGQPENNYKTTPPVLDSDGSFFLYSKLTVDKSRWQQGNVFSCSVMHEALHNHYTQKSLSLSPGK light: ETTVTQSPAFMSATPGDKVTISCITSTDIDDDMNWYQQKPGEPPKLLISEGSTLRPGVPSRFSSSGYGTDFTFTINNIESEDAAYYYCLQSDNLPLTFGQGTKLEIKRTVAAPSVFIFPPSDEQLKSGTASVVCLLNNFYPREAKVQWKVDNALQSGNSQESVTEQDSKDSTYSLSSTLTLSKADYEKHKVYACEVTHQGLSSPVTKSFNRGEC	0.65 nM
77G06 (antibody, human IgG1, kappa, Humanized 11G04, human IgG1 STR) heavy: EVQLVQSGAEVKKPGSSVKVSCKASGYRFSDYEMQWVRQAPGQGLEWMGGIDPETGGIAYAQKFQGRVTLTADKSTSTAYMELSSLRSEDTAVYYCTRKLDFDYWGQGTLVTVSSASTKGPSVFPLAPSSKSTSGGTAALGCLVKDYFPEPVTVSWNSGALTSGVHTFPAVLQSSGLYSLSSVVTVPSSSLGTQTYICNVNHKPSNTKVDKKVEPKSCDKTHTCPPCPAPESTRGPSVFLFPPKPKDTLYITREPEVTCVVVDVSHEDPEVKFNWYVDGVEVHNAKTKPREEQYNSTYRVVSVLTVLHQDWLNGKEYKCKVSNKALPAPIEKTISKAKGQPREPQVYTLPPSRDELTKNQVSLTCLVKGFYPSDIAVEWESNGQPENNYKTTPPVLDSDGSFFLYSKLTVDKSRWQQGNVFSCSVMHEALHNHYTQKSLSLSPGK light: ETTVTQSPAFMSATTGDKVTISCITSTDIDDDMNWYQQKPGEPPKLLISEGSTLRPGVPSRFSSSGYGTDFTFTINNIESEDAAYYYCLQSDNLPLTFGQGTKLEIKRTVAAPSVFIFPPSDEQLKSGTASVVCLLNNFYPREAKVQWKVDNALQSGNSQESVTEQDSKDSTYSLSSTLTLSKADYEKHKVYACEVTHQGLSSPVTKSFNRGEC	0.81 nM
74G06 (antibody, human IgG1, kappa, Humanized 11G04, human IgG1 STR) heavy: QVQLVQSGAEVKKPGSSVKVSCKASGYRFSDYEMQWVRQAPGQGLEWMGGIDPETGGIAYAQKFQGRVTLTADKSTSTAYMELSSLRSEDTAVYYCTRKLDFDYWGQGTLVTVSSASTKGPSVFPLAPSSKSTSGGTAALGCLVKDYFPEPVTVSWNSGALTSGVHTFPAVLQSSGLYSLSSVVTVPSSSLGTQTYICNVNHKPSNTKVDKKVEPKSCDKTHTCPPCPAPESTRGPSVFLFPPKPKDTLYITREPEVTCVVVDVSHEDPEVKFNWYVDGVEVHNAKTKPREEQYNSTYRVVSVLTVLHQDWLNGKEYKCKVSNKALPAPIEKTISKAKGQPREPQVYTLPPSRDELTKNQVSLTCLVKGFYPSDIAVEWESNGQPENNYKTTPPVLDSDGSFFLYSKLTVDKSRWQQGNVFSCSVMHEALHNHYTQKSLSLSPGK light: ETTVTQSPAFMSATTGDKVTISCITSTDIDDDMNWYQQKPGEPPKLLISEGNTLRPGVPSRFSSSGYGTDFTFTINNIESEDAAYYYCLQSDNLPLTFGQGTKLEIKRTVAAPSVFIFPPSDEQLKSGTASVVCLLNNFYPREAKVQWKVDNALQSGNSQESVTEQDSKDSTYSLSSTLTLSKADYEKHKVYACEVTHQGLSSPVTKSFNRGEC	1.1 nM

Further binders by falling EC50, results first:

EC50	Binder
1.15 nM	78G06 (antibody, human IgG1, kappa, Humanized 11G04, human IgG1 STR) heavy: QVQLVQSGAEVKKPGSSVKVSCKASGYRFSDYEMQWVRQAPGQGLEWMGGIDPETGGIAYAQKFQGRVTLTADKSTSTAYMELSSLRSEDTAVYYCTRKLDFDYWGQGTLVTVSSASTKGPSVFPLAPSSKSTSGGTAALGCLVKDYFPEPVTVSWNSGALTSGVHTFPAVLQSSGLYSLSSVVTVPSSSLGTQTYICNVNHKPSNTKVDKKVEPKSCDKTHTCPPCPAPESTRGPSVFLFPPKPKDTLYITREPEVTCVVVDVSHEDPEVKFNWYVDGVEVHNAKTKPREEQYNSTYRVVSVLTVLHQDWLNGKEYKCKVSNKALPAPIEKTISKAKGQPREPQVYTLPPSRDELTKNQVSLTCLVKGFYPSDIAVEWESNGQPENNYKTTPPVLDSDGSFFLYSKLTVDKSRWQQGNVFSCSVMHEALHNHYTQKSLSLSPGK light: ETTVTQSPAFMSATTGDKVTISCITSTDIDDDMNWYQQKPGEPPKLLISEGSTLRPGVPSRFSSSGYGTDFTFTINNIESEDAAYYYCLQSDNLPLTFGQGTKLEIKRTVAAPSVFIFPPSDEQLKSGTASVVCLLNNFYPREAKVQWKVDNALQSGNSQESVTEQDSKDSTYSLSSTLTLSKADYEKHKVYACEVTHQGLSSPVTKSFNRGEC
0.98 nM	75G06 (antibody, human IgG1, kappa, Humanized 11G04, human IgG1 STR) heavy: EVQLVQSGAEVKKPGSSVKVSCKASGYRFSDYEMQWVRQAPGQGLEWMGGIDPETGGIAYAQKFQGRVTLTADKSTSTAYMELSSLRSEDTAVYYCTRKLDFDYWGQGTLVTVSSASTKGPSVFPLAPSSKSTSGGTAALGCLVKDYFPEPVTVSWNSGALTSGVHTFPAVLQSSGLYSLSSVVTVPSSSLGTQTYICNVNHKPSNTKVDKKVEPKSCDKTHTCPPCPAPESTRGPSVFLFPPKPKDTLYITREPEVTCVVVDVSHEDPEVKFNWYVDGVEVHNAKTKPREEQYNSTYRVVSVLTVLHQDWLNGKEYKCKVSNKALPAPIEKTISKAKGQPREPQVYTLPPSRDELTKNQVSLTCLVKGFYPSDIAVEWESNGQPENNYKTTPPVLDSDGSFFLYSKLTVDKSRWQQGNVFSCSVMHEALHNHYTQKSLSLSPGK light: ETTVTQSPAFMSATPGDKVTISCITSTDIDDDMNWYQQKPGEPPKLLISEGNTLRPGVPSRFSSSGYGTDFTFTINNIESEDAAYYYCLQSDNLPLTFGQGTKLEIKRTVAAPSVFIFPPSDEQLKSGTASVVCLLNNFYPREAKVQWKVDNALQSGNSQESVTEQDSKDSTYSLSSTLTLSKADYEKHKVYACEVTHQGLSSPVTKSFNRGEC
0.88 nM	76G06 (antibody, human IgG1, kappa, Humanized 11G04, human IgG1 STR) heavy: QVQLVQSGAEVKKPGSSVKVSCKASGYRFSDYEMQWVRQAPGQGLEWMGGIDPETGGIAYAQKFQGRVTLTADKSTSTAYMELSSLRSEDTAVYYCTRKLDFDYWGQGTLVTVSSASTKGPSVFPLAPSSKSTSGGTAALGCLVKDYFPEPVTVSWNSGALTSGVHTFPAVLQSSGLYSLSSVVTVPSSSLGTQTYICNVNHKPSNTKVDKKVEPKSCDKTHTCPPCPAPESTRGPSVFLFPPKPKDTLYITREPEVTCVVVDVSHEDPEVKFNWYVDGVEVHNAKTKPREEQYNSTYRVVSVLTVLHQDWLNGKEYKCKVSNKALPAPIEKTISKAKGQPREPQVYTLPPSRDELTKNQVSLTCLVKGFYPSDIAVEWESNGQPENNYKTTPPVLDSDGSFFLYSKLTVDKSRWQQGNVFSCSVMHEALHNHYTQKSLSLSPGK light: ETTVTQSPAFMSATPGDKVTISCITSTDIDDDMNWYQQKPGEPPKLLISEGNTLRPGVPSRFSSSGYGTDFTFTINNIESEDAAYYYCLQSDNLPLTFGQGTKLEIKRTVAAPSVFIFPPSDEQLKSGTASVVCLLNNFYPREAKVQWKVDNALQSGNSQESVTEQDSKDSTYSLSSTLTLSKADYEKHKVYACEVTHQGLSSPVTKSFNRGEC
0.76 nM	11G06 (antibody, human IgG1, V domains shown) VH: EVQLQQSGAELVRPGASVTLSCKASGYRFSDYEMQWVKQTPVHGLEWIGGIDPETGGIAYNQKFKVKATLTADKSSSTAFMELRSLTSEDSAVYYCTRKLDFDYWGQGTTLTVSS VL: ETTVTQSPASLSVATGEKVTIRCITSTDIDDDMNWYQQKPGEPPKLLISEGNTLRPGVPSRFSSSGYGTDFVFTIENMLSEDVADYYCLQSDNLPLTFGAGTKLELK
